The experiment addresses human NRP1 protein (human, UniProt O14786 22-856). The experiment is described as follows: ELISA. For orientation: An ELISA detects its analyte on a solid surface through an enzyme-linked reagent.

Experimental findings from patent US20190227052A1 (published 2019) are described below.

In general, Kd refers to the concentration at which binding is half-saturated. A high value points to a looser complex.

Sequence of human NRP1 protein (O14786 22-856): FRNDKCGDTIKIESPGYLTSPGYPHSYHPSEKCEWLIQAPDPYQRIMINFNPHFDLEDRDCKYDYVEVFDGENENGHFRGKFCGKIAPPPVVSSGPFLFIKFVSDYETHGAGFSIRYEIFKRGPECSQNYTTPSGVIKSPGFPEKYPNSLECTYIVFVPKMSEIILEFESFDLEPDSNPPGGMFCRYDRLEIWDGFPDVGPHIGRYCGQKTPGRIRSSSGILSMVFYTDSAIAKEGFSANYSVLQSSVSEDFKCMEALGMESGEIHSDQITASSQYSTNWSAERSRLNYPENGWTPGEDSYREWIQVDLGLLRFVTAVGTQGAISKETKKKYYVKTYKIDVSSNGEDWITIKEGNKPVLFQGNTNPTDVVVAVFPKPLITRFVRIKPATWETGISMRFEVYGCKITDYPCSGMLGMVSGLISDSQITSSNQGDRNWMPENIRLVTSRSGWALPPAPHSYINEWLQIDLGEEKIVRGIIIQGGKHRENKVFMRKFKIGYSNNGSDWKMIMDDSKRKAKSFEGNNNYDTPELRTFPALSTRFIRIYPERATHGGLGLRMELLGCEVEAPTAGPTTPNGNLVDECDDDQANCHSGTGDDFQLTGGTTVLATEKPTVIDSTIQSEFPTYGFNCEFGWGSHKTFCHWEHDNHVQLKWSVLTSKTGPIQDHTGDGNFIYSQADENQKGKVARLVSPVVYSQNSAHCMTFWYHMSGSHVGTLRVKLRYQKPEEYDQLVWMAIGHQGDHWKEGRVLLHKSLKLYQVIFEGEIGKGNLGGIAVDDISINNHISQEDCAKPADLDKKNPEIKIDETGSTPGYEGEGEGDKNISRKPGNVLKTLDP

B1: 1A03 anti-NRP1 IgG antibody (antibody, V domains shown)
VH: EVQLLESGGGLVQFGGSLRLSQAASGFTFSSYYMSWVRQAFGKGLEWVSAISFGSSNKYYADSVQGRFTISRDNSKNTLYLQMNELRAEDTAVYYCARRKKSFDYWGQGTLVTVSS
VL: QSVLTQFFSASGTPGQRVTISCSGFSSNIGNNDVSWYQQLFGTAPKLLIYSCNNRPSGVPDRFSGSKSGTSASLAISGLSSDEADYYCGAWVASLSAYVFGGGTKLTVTL
B1: the dissociation constant Kd came out at 1110 nM.

B2: IRCR-101 (3H10 converted into IgG format) (antibody, V domains shown)
VH: EVQLLESGGGLVQFQQSLRLSQAASQFTFSSYYMSWVRQAFGKGLEWVSAISPGSSNKYYADSVKGRFTISRDNSKNTLYLQMNELRAEDTAVYYCARRKYMFDYWGQGTLVTVSS
VL: GSVLTQPPSASGTPGQRVTISCTGESSNIGNNDVYWYQQLPGTAFKLLIYSQSNRSGMPDRFSGSKSGTSASLAISGLRSEDEADYYCASWDSSLSGYVFGGGTKLTVTL
Turning to B2, the affinity, expressed as Kd, was 426 nM.
